According to paper PMC3267021, “The Molecular Basis for the Endocytosis of Small R-SNAREs by the Clathrin Adaptor CALM” (Cell, 2011):
Changes are numbered by the printed parent chain. “And” between values parts separate entries of the source, which are not always exact repeats. Identical values can stand only once.

T1: SNAP23, GST cleaved (human, UniProt O00161 1-211)
T1 construct: SNAP23, human; Construct pGEX 4T1 SNAP23 (human); source: E. coli BL21(DE3) pLysS, purified (glutathione sepharose, thrombin cleavage of GST); not shown: GST, N-terminal, cleaved
T1 sequence (looked up): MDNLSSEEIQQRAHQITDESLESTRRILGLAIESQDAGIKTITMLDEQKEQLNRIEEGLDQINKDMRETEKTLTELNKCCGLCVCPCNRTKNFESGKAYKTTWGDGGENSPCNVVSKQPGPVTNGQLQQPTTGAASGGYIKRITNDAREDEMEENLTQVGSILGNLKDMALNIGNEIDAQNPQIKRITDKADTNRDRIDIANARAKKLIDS

T2: His6MycCALM_(ANTH) (CALM ANTH domain, residues 1-289) (rat, UniProt O55012 1-289)
T2 construct: source: E. coli BL21(DE3) pLysS, purified (Ni2+-NTA agarose, S200 gel filtration)
T2 sequence (looked up): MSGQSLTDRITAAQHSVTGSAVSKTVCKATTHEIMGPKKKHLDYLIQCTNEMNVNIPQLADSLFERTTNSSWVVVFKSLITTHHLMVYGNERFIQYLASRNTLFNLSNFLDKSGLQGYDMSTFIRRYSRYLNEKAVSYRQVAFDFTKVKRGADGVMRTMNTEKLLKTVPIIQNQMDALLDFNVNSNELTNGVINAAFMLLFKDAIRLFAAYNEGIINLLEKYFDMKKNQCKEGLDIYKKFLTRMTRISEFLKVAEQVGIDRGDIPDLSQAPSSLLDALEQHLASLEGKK

T3: CALM_(ANTH(1-289)), GST cleaved (rat, UniProt O55012 1-289)
T3 construct: analyte of the liposome-based SPR and crystallised as 3ZYK; also called GST cleaved CALM_(ANTH); source: E. coli BL21(DE3) pLysS, purified (glutathione sepharose, thrombin cleavage of GST, S200 gel filtration); not shown: GST, N-terminal, cleaved
T3 sequence (looked up): T2 sequence (looked up)

T4: CALM_(ANTH(1-264)) part of the CALM_(ANTH(1-264)):VAMP8_((11-41)) chimera (rat, UniProt O55012 1-264)
T4 construct: PDB 3ZYM), VAMP8 11-41; also called CALM_(ANTH) in the chimeric complex; source: E. coli BL21(DE3) pLysS, purified (glutathione sepharose, thrombin cleavage of GST, S200 gel filtration); not shown: GST, N-terminal, cleaved
T4 sequence (looked up): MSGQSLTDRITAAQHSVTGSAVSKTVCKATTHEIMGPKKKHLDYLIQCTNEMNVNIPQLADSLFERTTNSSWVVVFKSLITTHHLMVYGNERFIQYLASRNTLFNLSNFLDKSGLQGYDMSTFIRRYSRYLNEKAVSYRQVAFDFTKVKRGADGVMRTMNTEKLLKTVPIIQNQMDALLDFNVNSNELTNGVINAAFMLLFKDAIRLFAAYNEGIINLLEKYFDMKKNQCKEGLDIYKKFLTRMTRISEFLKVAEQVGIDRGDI

B1: GST-VAMP8 (VAMP8 residues 1-76, full cytoplasmic portion) (domain or fragment, mouse, UniProt O70404 1-76, looked up)
chain: MEEASGSAGNDRVRNLQSEVEGVKNIMTQNVERILSRGENLDHLRNKTEDLEATSEHFKTTSQKVARKFWWKNVKM
notes: VAMP8, mouse, residues 1-76 (full cytoplasmic portion); Construct pGEX 4T2 VAMP8_(1-76); GST of pGEX vectors is N-terminal (surmise); also called VAMP8_(1-76); wt GSTVAMP8; source: E. coli BL21(DE3) pLysS, purified (glutathione sepharose, S200 gel filtration)
B2: GSTVAMP8 K24AM27A (domain or fragment, mouse, UniProt O70404 1-76, looked up)
chain: B1 chain with K24A, M27A
notes: VAMP8, mouse, residues 1-76; pGEX 4T2 VAMP8_(1-76) (mouse) 'and mutants thereof'; also called K24AM27A VAMP8; Lys24AlaMet27Ala mutant of VAMP8; source: E. coli BL21(DE3) pLysS, purified (glutathione sepharose, S200 gel filtration)
B3: VAMP8_(1-76)His12, GST cleaved (domain or fragment, mouse, UniProt O70404 1-76, looked up)
chain: B1 chain
notes: VAMP8, mouse, residues 1-76; Construct pGEX 4T2 VAMP8_((1-76))His12; also called His12-tagged VAMP8; His-tagged VAMP8; source: E. coli BL21(DE3) pLysS, purified (glutathione sepharose, thrombin cleavage of GST, Ni2+-NTA agarose, dialysis); not shown: GST, N-terminal, cleaved
B4: His6MycCALM_(ANTH) (CALM ANTH domain, residues 1-289) (domain or fragment)
chain: T2 sequence (looked up)
B5: CALM_(ANTH(1-264)), GST cleaved (domain or fragment, rat, UniProt O55012 1-264, looked up)
chain: T4 sequence (looked up)
notes: source: E. coli BL21(DE3) pLysS, purified (glutathione sepharose, thrombin cleavage of GST, S200 gel filtration); not shown: GST, N-terminal, cleaved
B6: VAMP8_((11-41)) part of the CALM_(ANTH(1-264)):VAMP8_((11-41)) chimera (domain or fragment, mouse, UniProt O70404 11-41, looked up)
chain: DRVRNLQSEVEGVKNIMTQNVERILSRGENL
notes: VAMP8, mouse, residues 11-41; also called VAMP8 helix; residues 11-41 of VAMP8; source: E. coli BL21(DE3) pLysS, purified (as part of the chimera)
B7: GST-VAMP3 (VAMP3 residues 1-81) (domain or fragment)
chain: MSTGVPSGSSAATGSNRRLQQTQNQVDEVVDIMRVNVDKVLERDQKLSELDDRADALQAGASQFETSAAKLKRKYWWKNCK
B8: GST-VAMP8_(10-41) (domain or fragment, mouse, UniProt O70404 10-41, looked up)
chain: NDRVRNLQSEVEGVKNIMTQNVERILSRGENL
notes: VAMP8, mouse, residues 10-41 (N-terminal half of the SNARE motif); Construct pGEX 4T2 VAMP8_((10-41)); also called residues 10-41 of VAMP8; source: E. coli BL21(DE3) pLysS, purified (glutathione sepharose, S200 gel filtration)
B9: GSTVAMP8 L44PL51P (domain or fragment, mouse, UniProt O70404 1-76, looked up)
chain: B1 chain with L44P, L51P
notes: VAMP8, mouse, residues 1-76; source: E. coli BL21(DE3) pLysS, purified (glutathione sepharose, S200 gel filtration)
B10: syntaxin3 (residues 195-253), GST cleaved (domain or fragment, human, UniProt Q13277 195-253, looked up)
chain: EGRHKDIVRLESSIKELHDMFMDIAMLVENQGEMLDNIELNVMHTVDHVEKARDETKKA
notes: syntaxin3, human, residues 195-253; Construct pGEX 4T1syntaxin3_((195-253)) (human); also called syntaxin3_((195-253)); Synatxin3(195–253); source: E. coli BL21(DE3) pLysS, purified (glutathione sepharose, thrombin cleavage of GST); not shown: GST, N-terminal, cleaved

Experiments:
SNAP23, GST cleaved = target: T1, SNAP23, GST cleaved; experiment: pull-down; SNARE complex formation: GST-VAMP8 incubated with a three fold molar excess of SNAP23 and syntaxin3 at 4°C for 48 hr in 20 mM HEPES pH 7.4, 500 mM NaCl, 4 mM DTT, 0.5% NP-40; purified on glutathione-sepharose, then S200 gel filtration; details: both partners purified
[1] = target: T2, His6MycCALM_(ANTH) (CALM ANTH domain, …); experiment: ITC; VPiTC; 2 mM His6MycCALM_(ANTH) (WT or mutant) or GST cleaved Epsin_(ENTH) titrated in 37 injections of 4-8 μL into 0.15 mM GST-SNARE in the cell; 100 mM HEPES pH 7.4, 150 mM NaCl, 4 mM DTT; legends give a representative run with SEM of the fit, the text the average of all runs; details: both partners purified
[2] = target: T3, CALM_(ANTH(1-289)), GST cleaved; experiment: SPR; liposome-based SPR, Biacore 3000, L1 chip; PC/PE + 5% DGS-NTA(Ni) liposomes with captured His12-tagged VAMP8 (600RU); GST cleaved CALM_(ANTH) as analyte, 10 nM to 50 μM, one minute injections at 50 μl/min; PC/PE binding subtracted; details: both partners purified
GST-SNARE (WT or mutant) = experiment: ITC; VPiTC; 2 mM His6MycCALM_(ANTH) (WT or mutant) or GST cleaved Epsin_(ENTH) titrated in 37 injections of 4-8 μL into 0.15 mM GST-SNARE in the cell; 100 mM HEPES pH 7.4, 150 mM NaCl, 4 mM DTT; legends give a representative run with SEM of the fit, the text the average of all runs
[3] = target: the molecule itself; experiment: SEC-MALS; analytical S200 10/300 column, 20 mM HEPES pH 7.4, 120 mM NaCl, 4 mM DTT, 0.5 mL/min, inline MALS
[4] = target: T4, CALM_(ANTH(1-264)) part of the …; experiment: crystal structure; CALM_(ANTH(1-264)):VAMP8_((11-41)) chimera on one chain, GST cleaved; sitting drops at 16°C, 100 mM phosphate-citrate pH 4.2, 200 mM NaCl, 50% (v/v) PEG-200; 2.0 Å; PDB 3ZYM; details: both partners purified
GSTVAMP8 K24AM27A = target: B2; experiment: pull-down; SNARE complex formation: GST-VAMP8 incubated with a three fold molar excess of SNAP23 and syntaxin3 at 4°C for 48 hr in 20 mM HEPES pH 7.4, 500 mM NaCl, 4 mM DTT, 0.5% NP-40; purified on glutathione-sepharose, then S200 gel filtration; details: both partners purified
[5] = target: B1; experiment: as above; details: both partners purified

## B1
SNAP23, GST cleaved
  binding result: binds
[1]
  Kd: ~18 µM and 17 µM and 20 µM

## B2
SNAP23, GST cleaved
  binding result: binds

## B3
[2]
  Kd: 0.9 µM

## B4
GST-SNARE (WT or mutant)
  stoichiometry N: 0.9 to 1.1

## B5
[3]
  stoichiometry N: 2

## B6
[4]
  binding result: binds

## B7
[1]
  Kd: 46 µM

## B8
[1]
  Kd: 20 µM

## B9
[1]
  Kd: 23 µM

## B10
GSTVAMP8 K24AM27A
  binding result: binds
[5]
  binding result: binds
